Values of other authors, collected in paper PMC7419686.
pKd: −log10 of the molar value.

Molecular target: MDMX (Homo sapiens) (UniProt O15151)
Sequence (O15151 whole entry): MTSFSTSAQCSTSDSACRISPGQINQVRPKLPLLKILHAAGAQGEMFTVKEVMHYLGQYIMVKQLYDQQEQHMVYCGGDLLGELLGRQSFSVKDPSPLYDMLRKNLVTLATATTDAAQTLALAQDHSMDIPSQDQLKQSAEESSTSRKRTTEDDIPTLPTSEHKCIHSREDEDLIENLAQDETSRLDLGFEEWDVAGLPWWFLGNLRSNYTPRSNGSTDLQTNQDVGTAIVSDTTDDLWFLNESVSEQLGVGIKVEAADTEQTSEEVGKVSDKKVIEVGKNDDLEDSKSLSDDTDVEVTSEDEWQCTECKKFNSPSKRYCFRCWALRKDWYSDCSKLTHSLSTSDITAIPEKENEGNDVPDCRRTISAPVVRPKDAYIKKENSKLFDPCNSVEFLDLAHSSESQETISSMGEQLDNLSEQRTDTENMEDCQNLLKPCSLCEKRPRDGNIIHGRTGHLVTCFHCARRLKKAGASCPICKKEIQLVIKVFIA

pKd: 8.64
Substance: SAH-p53-8 (from UniProt P04637)
